B2: gamma-hemolysin component HlgB (F component leukotoxin) of Staphylococcus aureus (natural protein)
chain: NAEGKITPVSVKKVDDKVTLYKTTATADSDKFKISQILTFNFIKDKSYDKDTLVLKATGNINSGFVKPNPNDYDFSKLYWGAKYNVSISSQSNDSVNVVDYAPKNQNEEFQVQNTLGYTFGGDISISNGLSGGLNGNTAFSETINYKQESYRTTLSRNTNYKNVGWGVEAHKIMNNGWGPYGRDSFHPTYGNELFLAGRQSSAYAGQNFIAQHQMPLLSRSNFNPEFLSVLSHRQDGAKKSKITVTYQREMDLYQIRWNGFYWAGANYKNFKTRTFKSTYEIDWENHKVKLLDTKETENNK

Tests used:
[1] = target: SNAP-tag-fused ACKR1 receptor (human) (UniProt Q16570); experiment: FRET or BRET
[2] = target: T1, ACKR1 treated with PNGase F (deglycosylated ACKR1) (human, UniProt Q16570 1-336, N-glycans removed by PNGase F); experiment: native MS
T1 sequence: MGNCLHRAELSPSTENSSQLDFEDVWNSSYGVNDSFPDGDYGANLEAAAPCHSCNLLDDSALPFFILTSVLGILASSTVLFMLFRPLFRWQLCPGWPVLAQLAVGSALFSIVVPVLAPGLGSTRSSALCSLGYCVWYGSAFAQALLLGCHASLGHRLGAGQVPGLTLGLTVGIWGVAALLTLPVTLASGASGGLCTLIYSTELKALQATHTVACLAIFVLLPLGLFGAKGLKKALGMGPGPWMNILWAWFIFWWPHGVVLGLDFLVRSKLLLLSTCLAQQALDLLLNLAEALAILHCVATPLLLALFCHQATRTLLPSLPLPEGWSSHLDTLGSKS

[3] = target: B2; experiment: native MS
[4] = target: T2, N16,27,33Q-ACKR1 mutant (non-glycosylated) (human, UniProt Q16570 1-336, N^16,27,33Q | N^16,27,33Q | N^16,27,33Q); experiment: HDX-MS
T2 sequence: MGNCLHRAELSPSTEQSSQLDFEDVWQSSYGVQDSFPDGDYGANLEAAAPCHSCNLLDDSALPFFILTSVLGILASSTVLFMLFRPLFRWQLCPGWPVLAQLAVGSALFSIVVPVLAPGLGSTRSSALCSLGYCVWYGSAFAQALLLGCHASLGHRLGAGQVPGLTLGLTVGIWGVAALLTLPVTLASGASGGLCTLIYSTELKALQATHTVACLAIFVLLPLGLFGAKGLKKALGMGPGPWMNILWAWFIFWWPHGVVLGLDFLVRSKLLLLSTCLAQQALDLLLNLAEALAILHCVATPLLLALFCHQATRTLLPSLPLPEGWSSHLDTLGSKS

[5] = target: T3, gamma-hemolysin component HlgA (S component leukotoxin) of Staphylococcus aureus (Staphylococcus aureus), P0A074; experiment: native MS; conditions: remark: other sources report otherwise
T3 chain: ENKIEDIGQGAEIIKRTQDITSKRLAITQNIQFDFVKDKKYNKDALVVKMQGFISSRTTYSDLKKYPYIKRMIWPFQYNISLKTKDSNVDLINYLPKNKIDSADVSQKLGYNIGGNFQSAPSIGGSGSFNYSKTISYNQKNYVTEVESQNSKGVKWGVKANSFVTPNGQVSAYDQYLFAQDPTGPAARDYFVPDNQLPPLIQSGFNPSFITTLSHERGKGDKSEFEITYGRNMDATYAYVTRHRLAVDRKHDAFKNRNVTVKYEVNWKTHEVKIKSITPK

native MS = target: the molecule itself; experiment: native MS

Molecule: HlgAB, equimolar mixture of HlgA and HlgB (from UniProt P0A074;P0A077) (complex)
- IC50 [1]: 6.2 nM

B1: gamma-hemolysin component HlgA (S component leukotoxin) of Staphylococcus aureus (natural protein)
chain: ENKIEDIGQGAEIIKRTQDITSKRLAITQNIQFDFVKDKKYNKDALVVKMQGFISSRTTYSDLKKYPYIKRMIWPFQYNISLKTKDSNVDLINYLPKNKIDSADVSQKLGYNIGGNFQSAPSIGGSGSFNYSKTISYNQKNYVTEVESQNSKGVKWGVKANSFVTPNGQVSAYDQYLFAQDPTGPAARDYFVPDNQLPPLIQSGFNPSFITTLSHERGKGDKSEFEITYGRNMDATYAYVTRHRLAVDRKHDAFKNRNVTVKYEVNWKTHEVKIKSITPK
- stoichiometry N [2]: 1
- binding result [3]: binds
- binding result [4]: binds
- relative quantification in the equimolar mixture (HlgA monomer 100%) [5]: 1.5%
- stoichiometry N [5]: 2

Molecule: B2
- fold dimer-to-monomer ratio against HlgA (native MS): 2 fold
- stoichiometry N (native MS): 2
- binding result [4]: binds

B3: atypical chemokine receptor 1 (ACKR1), purified, glycosylated wild type (receptor)
chain: MGNCLHRAELSPSTENSSQLDFEDVWNSSYGVNDSFPDGDYGANLEAAAPCHSCNLLDDSALPFFILTSVLGILASSTVLFMLFRPLFRWQLCPGWPVLAQLAVGSALFSIVVPVLAPGLGSTRSSALCSLGYCVWYGSAFAQALLLGCHASLGHRLGAGQVPGLTLGLTVGIWGVAALLTLPVTLASGASGGLCTLIYSTELKALQATHTVACLAIFVLLPLGLFGAKGLKKALGMGPGPWMNILWAWFIFWWPHGVVLGLDFLVRSKLLLLSTCLAQQALDLLLNLAEALAILHCVATPLLLALFCHQATRTLLPSLPLPEGWSSHLDTLGSKS
modifications: N-glycosylated at N16, N27 and N33
- stoichiometry N (native MS): 2

— article doi:10.1101/2021.02.08.430206 (bioRxiv, 2021)
